US20170037149A1 (Amgen, published 2017)
Substitutions are numbered along the chain they refer to.

B1: FL-57 scFv (scFv)
scFv: QVTLKESGPTLVKPTETLTLTCTFSGFSLRYARMGVSWIRQPPGKALEWLAHISSNDEKSFSTALESRLTISTDTSKSQMVLTMTNVDPVDTATYYCARMPGDSNTWRGFFDYWGQGTLVTVSSGGGGSGGGGSGGGGSEIVMTQSPGTLSLSPGERATLSCRTSQTVTNSYIAWYQQRPGQAPRLLIYGTSTRATGIPDRFSGSGSGTDFTLTISRLEPEDFAVYYCQKYGSSPLTFGGGTKLEIK
notes: periplasmic prep
B2: FL-60 scFv (scFv)
scFv: QVTLKESGPALVKPTQTLTLTCTFSGFSLSNARMGVSWIRQPPGKALEWLAHIFSNDEKSYSTSLKSRLTISKDTSKRQVVLTMTNMDPVDTATYYCARMVGYGSGWYAYFDYWGQGTLVTVSSGGGGSGGGGSGGGGSDIVMTQTPLSLSVTPGQPASISCRSSQSLLHSNGYNYLYWYLQKPGQPPQLLIYEVSNRFSGVPDRFSGSGSGTDFTLKISRVEAEDVGVYYCMQALQTPLTFGGGTKVEIK
notes: periplasmic prep
B3: FL-51 scFv (scFv)
scFv: QVTLKESGPTLVKPTETLTLTCTVSGFSLRNVRMGVSWIRQPPGKCLEWLAHISSNDEKSYSTSLRSRLTISTDTSKSQVVLTMTNMDPVDTATYYCARMPGDSNTWRGFFDYWGQGTLVTVSSGGGGSGGGGSGGGGSEIVMTQSPATLSVSPGERATLSCRTSQSVNNNLAWYQQKPGQAPRLLIYGASTRATGIPARFSGSGSGTEFTLTISSLQPEDFATYYCLQHNSYPLTFGCGTKVEIK
notes: periplasmic prep
B4: FL-58 scFv (scFv)
scFv: B3 scFv with C46A, C239G
notes: periplasmic prep
B5: FL-56 scFv (scFv)
scFv: QVTLKESGPVLVKPTETLTLTCTVSGFSLRNVRMGVSWIRQPPGKALEWLAHIFSNDEKLYTTSLKSRLTISKDTSKSQVVLTMTNMDPEDTATYYCARIVGYGTGWYGYFDYWGQGTQVTVSSGGGGSGGGGSGGGGSDIQMTQSPSSLSASIGDRVTITCRASQDIRDDLGWYQREPGKAPKRLIYATSIRQSGVPSRFSGSGSGTEFTLTISGLQPEDFATYFCLQHHSFPLTFGGGTKVDIK
notes: periplasmic prep
B6: FL-48 scFv (scFv)
scFv: QVTLKESGPMLVKPTETLTLTCTFSGFSLRNARMGVSWIRQPPGKCLEWLAHIFWNDEKSYSTSLKSRLTISKDTSKSQVVLTMTNMDPVDTATYYCARIPYYGSGSYNYGMDVWGQGTTVTVSSGGGGSGGGGSGGGGSDIQMTQSPSSLSASVGDRVTITCRASQGIRNDLGWYQQKPGKAPKRLIYAASSLQSGVPSRFSGSGSGTEFTLTISSLQPEDFATYYCLQHNTYPLTFGCGTKVDIK
notes: periplasmic prep
B7: FL-17 scFv (scFv)
scFv: QVTLKESGPTLVKPTETLTLTCTVSGFSLSNARMGVSWIRQPPGKALEWLANIFSNDEKSYSTSLKSRLTISKGTSKSQVVLTMTNVNPVDTGTYYCARIVGYGSGWYGYFDYWGQGTLVTVSSGGGGSGGGGSGGGGSDIQMTQSPSSLSASVGDRVTITCRASQDIRNDLGWYQQKPGKAPKRLIYATSIRQSGVPSRFTGSGSGTEFTLTISGLQPEDFATYFCLQHNSFPLTFGGGTKVEIK
notes: periplasmic prep
B8: FL-9 scFv (scFv)
scFv: QVTLKESGPTLVKPTETLTLTCTVSGFSLSNARMGVSWIRQPPGKALEWLAHIFSNDEKSYSTSLKSRLTISKDTSKSQVVLTMTNMDPVDTATYYCARIPGYGGNFYYHYYGMDVWGQGTTVTVSSGGGGSGGGGSGGGGSDIQMTQSPSSLSASVGDRVTITCRASQGIRNDLAWYQQKPGKAPKRLIYAASTVQSGVPSRFSGSGSGTEFALTISSLQPEDFATYYCLQHNSFPWTFGQGTKVDIK
notes: periplasmic prep
B9: FL-50 scFv (scFv)
scFv: B8 scFv with A46C, Q242C
notes: periplasmic prep
B10: FL-21 scFv (scFv)
scFv: QVTLKESGPALVKPTETLTLTCTFSGFSLSNARMGVSWIRQPPGKALEWLAHIFSNDEKSYSTSLKSRLTISKDTSKSQVVLTMTNMDPVDTATYYCARIPGYGGNFYYHYYGMDVWGQGTTVTVSSGGGGSGGGGSGGGGSDIQMTQSPSSLSASVGDRVTITCRTSRGIRNDLGWYQQIPGRAPKRLIYAASTLQSGVPSRFSGSGSGTEFTLTISSLQPEDFATYYCLQHNNFPWTFGQGTKVEIK
notes: periplasmic prep
B11: FL-1 scFv (scFv)
scFv: QVTLKESGPVLVKPTETLTLTCTVSGFSLINARMGVSWIRQPPGKALEWLAHIFSNAEKSYRTSLKSRLTISKDTSKSQVVLTMTNMDPVDTATYYCARIPGYGGNGDYHYYGMDVWGQGTTVTVSSGGGGSGGGGSGGGGSDIQMTQSPSSLSASLGDRVTITCRASQGIRNDLGWYQQKPGKAPKRLIYASSTLQSGVPSRFSGSGSGTEFTLTISSLQPEDFATYYCLQHNNFPWTFGQGTKVEIK
notes: periplasmic prep
B12: FL-54 scFv (scFv)
scFv: QVQLVESGGGVVQPGRSLRLSCAASGFTFSSYGMHWVRQAPGKCLEWVAVISYDGSNEFYADSVKGRFTISRDNSKNTLYLQMNSLRAEDTAVYYCARGGEITMVRGVIGYYYYGMDVWGQGTTVTVSSGGGGSGGGGSGGGGSEIVMTQSPATLSVSPGERATLSCRASQGVRNNLVWYQQKPGQAPRLLIYGASTRATGIPARFSGSGSGTEFTLTISSLQSEDFATYYCLQHNSYPLTFGCGTKVEIK
notes: periplasmic prep
B13: FL-62 scFv (scFv)
scFv: B12 scFv with C44G, C244G
notes: periplasmic prep; also called F-62
B14: FL-55 scFv (scFv)
scFv: QVQLVESGGGVVQPGRSLRLSCAASGFTFSSYGMHWVRQAPGKCLEWVAVISYDGSNKYYADSVKGRFTISRDNSKNTLYLQMNSLRAEDTAVYYCARSYGMDVWGQGTTVTVSSGGGGSGGGGSGGGGSDIQMTQSPSSVSASVGDRVTITCRASQGISSWLAWYQQKPGKAPKLLIYAASSLQSGVPSRFSGSGSGTDFTLTISSLQPEDFATYYCQQANSFPWTFGCGTKLEIK
notes: periplasmic prep
B15: FL-65 scFv (scFv)
scFv: B14 scFv with C44G, C230Q
notes: periplasmic prep
B16: FL-8 scFv (scFv)
scFv: QVTLKESGPALVKPTETLTLTCTVSGFSLSYARMGVSWIRQPPGKALEWLAQIFSNDEKSYSTSLKSRLTISKGTSNSQVVLTMTNMDPEDTATYYCARIVGYGTGWYGFFDYWGQGILVTVSSGGGGSGGGGSGGGGSDIQMTQSPSSLSASVGDRVTITCRASQGIRNDLGWYQQKPGKAPKRLIYAASSLQSGVPSRFSGSGSGTEFTLTISSLQPEDFATYYCLQHNSYPLTFGGGTKVDIK
notes: periplasmic prep
B17: FL-3 scFv (scFv)
scFv: QVTLKESGPALVKPTETLTLTCTVSGFSLSNARMAVSWIRQPPGKALEWLAHIFSNGEKSYSTSLKSRLTISKDTSKTQVVLTMTNTDPVDTATYFCARIVGYSDWLLPFDHWGQGIMVTVSSGGGGSGGGGSGGGGSDIQMTQSPSSLSASVGDRVTITCRASQNINRFLNWYQQKPGKAPKLLIYAASSLQSGVPSRFSGSGSGTDFTLTISSLQPEDFATYYCLQHNSYPWTFGQGTKVDIK
notes: periplasmic prep
B18: FL-49 scFv (scFv)
scFv: QVTLKESGPTLVKPTETLTLTCTVSGFSLNNARMGVSWIRQPPGKCLEWLAHIFSNDEKSYSTSLKNRLTISKDSSKTQVVLTMTNVDPVDTATYYCARIVGYGTGWFGYFDYWGQGTQVTVSSGGGGSGGGGSGGGGSDIQMTQSPSSLSASVGDRVTITCRASQDIRTDLAWYQQKPGKAPKRLIYAASSLQSGVPSRFSGSGSGTEFTLTISSLQPEDFATYYCLQHNRYPLTFGCGTKVDIK
notes: periplasmic prep
B19: FL-7 scFv (scFv)
scFv: B18 scFv with C46A, C239G
notes: periplasmic prep
B20: FL-63 scFv (scFv)
scFv: QVQLVESGGGVVQPGRSLRLSCAASGFTFSSYGMHWVRQAPGKGLEWVAVISYDGSNEFYADSVKGRFTISRDNSKNTLYLQMNSLRAEDTAVYYCARGGEITMVRGVIGYYYYGMDVWGQGTTVTVSSGGGGSGGGGSGGGGSDIQMTQSPSSLSASVGDRVTITCRTSQSISSYLNWYQQKPGKAPKLLIYAASSLQSGVPSRFSGSGSGTEFTLTISSLQPEDFATYYCLQHNSYPLTFGGGTKVDIK
notes: periplasmic prep
B21: FL-53 scFv (scFv)
scFv: B20 scFv with G44C, G244C
notes: periplasmic prep
B22: FL-61 scFv (scFv)
scFv: B20 scFv with T169A, D249E
notes: periplasmic prep
B23: FL-64 scFv (scFv)
scFv: B20 scFv with D161N, T169A
notes: periplasmic prep
B24: FL-2 scFv (scFv)
scFv: QVTLKESGPVLVKPTETLTLTCTVSGFSLRNARMGVSWIRQPPGKALEWLAHIFSNDEKTYSTSLKSRLTISRDTSKGQVVLTMTKMDPVDTATYYCARIPYYGSGSHNYGMDVWGQGTTVTVSSGGGGSGGGGSGGGGSDIQMTQSPSSLSASVGDRVTITCRASQDIRNDFGWYQQKPGKAPQRLLYAASTLQSGVPSRFSGSGSGTEFTLTISSLQPEDFATYYCLQYNTYPWTFGQGTKVEIK
notes: periplasmic prep

Molecular target: T1, human FLT3 (human, UniProt P36888 27-993)
T1 construct: On transfected CHO cells, or on the FLT3 positive human AML cell lines EOL-1 / MV4-11 where the row says so; also called hu FLT3; full length human FLT3
Test: FACS, scFv on CHO-human FLT3 pre-incubated with FLT3 ligand (competitor)
Description: The detection was performed using mouse anti-FLAG+PE-conjugated goat anti-mouse and the Fluorescence median detected by FACS (median (+ligand)/median (w/o ligand)*100%)
Afterwards cells were not washed but directly stained with FLT3 binder (scFv's). […] As negative control, cells were incubated with an unspecific scFv instead of FLT3 scFv.
For the evaluation of the data, the fluorescence median was detected by FACS.

Row | Binder | median [+ligand]/median [w/o ligand]*100 [%]
1 | B1 | ≥ 75
2 | B2 | ≥ 75
3 | B3 | ≥ 75
4 | B4 | ≥ 75
5 | B5 | ≥ 75
6 | B6 | ≥ 75
7 | B7 | ≥ 75
8 | B8 | ≥ 75
9 | B9 | ≥ 75
10 | B10 | ≥ 75
11 | B11 | ≥ 75
12 | B12 | ≥ 75
13 | B13 | ≥ 75
14 | B14 | ≥ 75
15 | B15 | ≥ 75
16 | B16 | ≥ 75
17 | B17 | ≥ 75
18 | B18 | ≥ 75
19 | B19 | ≥ 75
20 | B20 | ≥ 75
21 | B21 | ≥ 75
22 | B22 | ≥ 75
23 | B23 | ≥ 75
24 | B24 | ≥ 75
